PMC9352664 (Nature Communications, 2022)

How the values were obtained:
HiSiaP (P-domain) [1] = molecular target: T1, HiSiaP (P-domain) (Haemophilus influenzae, UniProt P44542, D81R); conditions: read-out: affinity; 50 mM Tris, 50 mM NaCl, pH 8; one approximate value printed for all three mutants
T1 construct: gene siaP

HiSiaP (P-domain) [2] = molecular target: T2, HiSiaP (P-domain) (Haemophilus influenzae, UniProt P44542, E195R); conditions: read-out: affinity; 50 mM Tris, 50 mM NaCl, pH 8; one approximate value printed for all three mutants
T2 construct: gene siaP

HiSiaP (P-domain) [3] = molecular target: T3, HiSiaP (P-domain) (Haemophilus influenzae, UniProt P44542, S83R); conditions: read-out: affinity; 50 mM Tris, 50 mM NaCl, pH 8; one approximate value printed for all three mutants
T3 construct: gene siaP

[4] = molecular target: HiSiaQM K273C-biotin (Haemophilus influenzae) (UniProt P44543); experiment: SPR
[5] = molecular target: HiSiaQM (wild type) (Haemophilus influenzae) (UniProt P44543); experiment: single-molecule TIRF microscopy on solid-supported bilayers; HiSiaQM in DOPC solid-supported bilayers, AF-647-labelled P-domain without sialic acid; 20 mM HEPES, 150 mM NaCl, pH 7.4
HiSiaQM K273C-biotin = molecular target: T4, HiSiaQM K273C-biotin (Haemophilus influenzae, UniProt P44543, Maleimide-PEG2-biotin on the introduced cysteine K273C)
T4 chain: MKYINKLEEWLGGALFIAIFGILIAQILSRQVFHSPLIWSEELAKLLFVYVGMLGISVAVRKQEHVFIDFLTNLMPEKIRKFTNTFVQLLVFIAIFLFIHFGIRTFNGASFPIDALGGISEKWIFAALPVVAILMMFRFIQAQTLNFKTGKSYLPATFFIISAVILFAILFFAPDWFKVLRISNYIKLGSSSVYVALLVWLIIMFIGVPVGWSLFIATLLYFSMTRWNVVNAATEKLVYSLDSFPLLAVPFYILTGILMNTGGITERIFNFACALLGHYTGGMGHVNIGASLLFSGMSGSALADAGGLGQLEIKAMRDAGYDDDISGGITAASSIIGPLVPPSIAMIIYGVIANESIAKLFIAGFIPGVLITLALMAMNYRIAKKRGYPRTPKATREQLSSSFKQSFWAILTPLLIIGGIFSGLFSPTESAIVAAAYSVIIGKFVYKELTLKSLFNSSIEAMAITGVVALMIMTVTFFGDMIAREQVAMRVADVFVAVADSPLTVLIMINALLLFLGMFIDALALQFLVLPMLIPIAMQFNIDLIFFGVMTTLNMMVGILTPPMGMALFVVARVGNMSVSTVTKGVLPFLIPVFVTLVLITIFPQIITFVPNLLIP

HiSiaQM (wild type) [6] = molecular target: T5, HiSiaQM (wild type) (Haemophilus influenzae, UniProt P44543); experiment: single-molecule TIRF microscopy on solid-supported bilayers; HiSiaQM in DOPC solid-supported bilayers pre-incubated with unlabelled VHHQM3 for at least 30 min, then AF-647-labelled P-domain added; conditions: both partners purified
T5 construct: also called QM-domains; native QM-domains

HiSiaQM (wild type) [7] = molecular target: T5, HiSiaQM (wild type); experiment: single-molecule TIRF microscopy on solid-supported bilayers; HiSiaQM in DOPC solid-supported bilayers stained with VHHQM3-AF-555, incubated at least 30 min, bilayer washed 5 times; conditions: both partners purified

CC(=O)N[C@H]1[C@H]([C@H](O)[C@H](O)CO)OC(O)(C(=O)O)C[C@@H]1O (stereo partly shown) [sialic acid]
Kd (HiSiaP (P-domain) [1]): ~50 nM | Kd (HiSiaP (P-domain) [2]): ~50 nM | Kd (HiSiaP (P-domain) [3]): ~50 nM

HiSiaP (wild type) (from UniProt P44542 24-329) (natural protein)
Kd [4]: 1000 nM

HiSiaP K254C labelled with AF-647 (from UniProt P44542) (natural protein; other documents disagree on this pair)
reduction of P–QM binding events in the absence of sialic acid [5]: 50%

B1: VHHQM4 (VHH)
VHH: QVQLVETGGGLVQPGGSLRLSCAASAFTYDNYGIGWFRQAPGKEREGVSCISSSGGTVNYADSVKGRFTISRDNAKNTVYLQMNSLKPEDTAVYYCAALKYGSSCRFLRAANFGSWGQGTRVTVSS
Kd (HiSiaQM K273C-biotin): 10.4 nM

B2: VHHQM5 (VHH)
VHH: QVQLVESGGGLVQPGGSLRLSCATSRFTLNYYDIGWFRQAPGKEREGVSCITSSGGNTNYADSVKGRFTISRDNAKNTVYLQMNSLKPEDTAIYYCAAAKYGSAWPCSSMPLRDFGSWGQGTQVTVSS
Kd (HiSiaQM K273C-biotin): 1.06 nM

B3: VHHQM7 (VHH)
VHH: QVQLVESGGGLVQPGGSLRLSCAASGFTLSYHAIGWFRQAPGKEREGVSFISSSGSSTNYADSVKGRFTISKDNAKNTVYLQMDSLKPEDTAVYYCARSAAYGSSWLNPSRYDYWGQGTQVTVSS
Kd (HiSiaQM K273C-biotin): 4.88 nM

B4: VHHQM6 (VHH)
VHH: QLQLVESGGGLVQAGGSLRLSCTASRVTLNYHDIGWFRQAPGKEREGVSYISSSGGSTKYADFVKGRFTISRDNAKNTVYLQMNSLKPEDTAVYYCARSAAYGSSWLNPSRYDYWGQGTQVTVSS
Kd (HiSiaQM K273C-biotin): 0.64 nM

B5: VHHQM3 (VHH)
VHH: QLQLVETGGGLVQPGGSLRLSCTASRVTLDYHDIGWFRQAPGKEREGVSYISSSGGSTNYADSVKGRFTISRDNAKNTVYLQMNSLKPEDTAVYYCARSSAYGSSWLNPSRYDYWGQGTQVTVSS
binding result (HiSiaQM (wild type) [6]): binds

B6: VHHQM3 S85C labelled with AF-555 (VHH)
VHH: QLQLVETGGGLVQPGGSLRLSCTASRVTLDYHDIGWFRQAPGKEREGVSYISSSGGSTNYADSVKGRFTISRDNAKNTVYLQMNCLKPEDTAVYYCARSSAYGSSWLNPSRYDYWGQGTQVTVSS
binding result (HiSiaQM (wild type) [7]): binds

B7: VHHQM2 (VHH)
VHH: QVQLVESGGGLVQPGESLRLSCAASGSTFSSYGMSWVRQAPRKGPEWVSSISASGTLTRYADFVKGRFTVSRDNAKNTLFLQMNSLKPEDTALYYCARGGAPSVVYNRHDWGQGTQVTVSS
Kd (HiSiaQM K273C-biotin): 9.83 nM

B8: VHHQM9 (VHH)
VHH: QLQLVESGGRSVQAGGSLRLSCAASGRAFTMAWFRQAPGKEREFVAARTWPVEYGYYADSVKDRFTISRDNAKNILYLQMTSLHPEDTAMYYCAASTANRDSVNVRFSDQYAYWGPGTQVTVSV
Kd (HiSiaQM K273C-biotin): 0.36 nM
